± gives the standard deviation of the averaged measurements.
System: ATP
Test: switch fluorescence ratio, 500 uM ATP over buffer (Cy3 cluster intensity, sum of 5 cycles each) (fold (ratio)); higher = stronger signal-on switching upon ATP binding; sequences stand for … in TCGTCGGCAGCGTCAGATGTGTATAAGAGACAGTTTTTTTTTTTTTTTTTTTTTTTTT…TC
Conditions: aptamer strand: ATP DNA aptamer (quencher-CACCTGGGGGAGTATTGCGGAGGAAGG + anchor), 100 nM annealed; ATP concentration: 500 uM
How it was run: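 Cy3-labelled switching-strand clusters on a modified Illumina MiSeq flow-cell were annealed to 100 nM quencher-labelled ATP aptamer, imaged in selection buffer, then imaged after 15 min with 500 uM ATP at 22 °C. Five buffer/ATP cycles ran, with NaOH stripping and re-annealing between them. The fluorescence ratio is summed target-cycle over summed buffer-cycle Cy3 intensity per cluster, averaged per switch-domain sequence. Clusters outside 100-1000 RFU were excluded.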
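Also: ATP exposure 15 min at 22 °C before imaging.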

| Sequence | switch fluorescence ratio |
| --- | --- |
| TAATACTTAT | 0.994 ± 0.033 |
| AGTGGCTTTT | 1.002 ± 0.0081 |
| TGTCAAAAAG | 1 ± 0.017 |
| TATTTGGCAT | 1.036 ± 0.0029 |
| TGTCAGTCGA | 1.002 ± 0.0036 |
| CGTATCCACT | 0.99569 ± 0.00085 |
| ACTGACGATG | 1.31 ± 0.018 |
| GTTTCAGGGG | 1.09 ± 0.015 |
| GGGTTAGATG | 0.9893 ± 0.0069 |
| ATTGAGAGGG | 1.07 ± 0.075 |
| CGAGGGGTTG | 1 ± 0.04 |
| CCTGTTTGTA | 1.01 ± 0.066 |
| CAGTTGAACT | 1.0209 ± 0.00023 |
| AACGTGTGGA | 0.9979 ± 0.0093 |
| AGTGTGTGAA | 0.962 ± 0.01 |
| TTAGGAGTGT | 0.9863 ± 0.0051 |
| CGGTGAATTT | 0.98263 ± 0.0009 |
| TTTTTCCTCT | 1.036 ± 0.0026 |
| GGGGAATTGT | 1.02 ± 0.056 |
| TGGTAATTGG | 0.98 ± 0.01 |
| GTTGAAAGGG | 1.03 ± 0.027 |
| CCAGAGGTAA | 1.04 ± 0.027 |
| TTGGGGGTTG | 1 ± 0.044 |
| AAGTTTTCAG | 0.97 ± 0.021 |
| TTGGGGGCGC | 1.01 ± 0.031 |

| Sequence | switch fluorescence ratio |
| --- | --- |
| GGTTATCTTT | 0.982 ± 0.047 |
| TTTTAGGACA | 0.99977 ± 0.00081 |
| GGACTCCCAT | 1.23 ± 0.074 |
| CGAATATTAA | 0.994 ± 0.013 |
| GGGGCGGCGA | 1.02 ± 0.047 |
| TGATTATTT | 0.978 ± 0.032 |
| GAGCAATGTG | 1.22 ± 0.3 |
| AAAGACAGGG | 0.976 ± 0.036 |
| GAAGGGAGTG | 0.986 ± 0.084 |
| GGGTAGGGGG | 0.989 ± 0.02 |
| GATTACGGGA | 1.052 ± 0.0098 |
| TTTCACAGTA | 1.03 ± 0.03 |
| CAAGGAGGGA | 1.01 ± 0.049 |
| TTTTAATGTC | 0.984 ± 0.027 |
| GGTTAAGCGG | 0.972 ± 0.021 |
| GGAAAAGTTC | 1 ± 0.058 |
| GGTGTTCACT | 0.995 ± 0.019 |
| AAGCATAGGT | 0.995 ± 0.018 |
| GGCTGCAGCT | 0.992 ± 0.016 |
| TGGTTTTTCC | 1.11 ± 0.12 |
| ATGGGGGTGC | 0.99 ± 0.026 |
| TCGGTGCTGG | 0.977 ± 0.018 |
| TTGGGGATGA | 1.01 ± 0.016 |
| TTTGGTAAGT | 1.022 ± 0.01 |
| TAACGCATG | 1.13 ± 0.082 |

| Sequence | switch fluorescence ratio |
| --- | --- |
| GGATGCCTTT | 0.977 ± 0.026 |
| CGGGTTAGTT | 1.002 ± 0.01 |
| CTATGTTATT | 1.01 ± 0.038 |
| CAACGTTTTG | 0.977 ± 0.023 |
| TGTTCTAGGG | 1.01 ± 0.013 |
| TTGGTGTCGG | 0.974 ± 0.036 |
| CATTTTGTTT | 0.998 ± 0.054 |
| ATGTAAAGCA | 1.02 ± 0.036 |
| GGCTGTACAC | 1.0831 ± 0.001 |
| GCGGTGAGGC | 0.9709 ± 0.0056 |
| TACTTAATAG | 1.03 ± 0.0015 |
| TTTATTGTTT | 1 ± 0.011 |
| AGGGTGGCTA | 1.011 ± 0.0015 |
| CTTAGATAAA | 0.985 ± 0.026 |
| TTTAGAAGGT | 0.995 ± 0.026 |
| GGGAATCGGG | 1 ± 0.019 |
| AGGAGAACGG | 0.938 ± 0.011 |
| AATCTGGTGT | 1.02 ± 0.054 |
| GGGGTTGGGG | 0.994 ± 0.031 |
| TCTGTAAGAA | 1.03 ± 0.041 |
| ATTATGGCAC | 1.01 ± 0.0041 |
| CCAAGTGCGG | 1.01 ± 0.029 |
| CTGAAGGGAC | 1.15 ± 0.036 |
| CCAGGAACGA | 0.986 ± 0.028 |
| TACGTTGCAA | 1.22 ± 0.015 |

| Sequence | switch fluorescence ratio |
| --- | --- |
| GGTGTAGGTG | 0.9851 ± 0.0098 |
| AATGCTGTTG | 0.991 ± 0.02 |
| GTTGTGCTGA | 1.02 ± 0.0085 |
| GATTCTTGTT | 1.02 ± 0.046 |
| AAGAAGGAAC | 1 ± 0.02 |
| CGGTTGGGGC | 1.11 ± 0.057 |
| GTGGTGAGGA | 0.953 ± 0.038 |
| TCGCTCATGG | 1.03 ± 0.015 |
| GGGAGATATT | 0.985 ± 0.0099 |
| CCTGGTGCAT | 2.15 ± 0.056 |
| TAAGGAATTG | 1.01 ± 0.045 |
| AGATTCGGGA | 0.967 ± 0.038 |
| AGTTGAGTCT | 0.981 ± 0.067 |
| ACTTCGAGCG | 1.08 ± 0.02 |
| TTGTTCCAAT | 0.989 ± 0.012 |
| GGGCCTGGGA | 1.01 ± 0.012 |
| AGATTAGGGT | 1.01 ± 0.017 |
| TTGTGGCTGG | 0.96 ± 0.035 |
| TGGGAGGTGT | 1.04 ± 0.028 |
| TTGCTGGAAT | 1.06 ± 0.095 |
| CTCGGGACTT | 0.9884 ± 0.0024 |
| TTTGTGATTT | 1.11 ± 0.27 |
| GTTGGAAGAG | 0.957 ± 0.051 |
| AGATAATTTG | 0.99459 ± 0.00061 |
| CAGTGGATAC | 1.2218 ± 0.00027 |

| Sequence | switch fluorescence ratio |
| --- | --- |
| TTATGGGACA | 1.026 ± 0.0097 |
| CATTAGGTGT | 1.16 ± 0.037 |
| ACGATCTTGC | 1.02 ± 0.035 |
| TAGCGGGGGG | 1.02 ± 0.046 |
| ACGTCCGCTA | 2.6 ± 0.064 |
| TTTGCCGATG | 0.985 ± 0.013 |
| GTTGGCTTGG | 1.02 ± 0.04 |
| TAGGGAACGT | 1.04 ± 0.04 |
| TTTTTTTTT | 1.01 ± 0.021 |
| AGGTGGCCGT | 0.963 ± 0.02 |
| GGCACCACCT | 1.157 ± 0.0082 |
| GGGATTATCA | 1.016 ± 0.0094 |
| TATGTTAAC | 1.02 ± 0.012 |
| ATCCGGACCC | 1.08 ± 0.1 |
| TCGGGGTCAG | 0.999 ± 0.02 |
| GGCTTGAGGG | 0.942 ± 0.033 |
| TAGTTGCATT | 0.994 ± 0.003 |
| ATAAGTCAAA | 0.99 ± 0.016 |
| TTGGCGGGGA | 0.987 ± 0.054 |
| TGCCATAATG | 1.02 ± 0.0057 |
| CGGGCCTTGA | 0.981 ± 0.016 |
| TTATGTTTGG | 1.02 ± 0.033 |
| TTGCTTTGGG | 1.01 ± 0.018 |
| CTGAATCCGT | 1.25 ± 0.036 |
| GATGCGGTTT | 0.994 ± 0.019 |

| Sequence | switch fluorescence ratio |
| --- | --- |
| TGCCACTCTG | 1.025 ± 0.008 |
| TGAGGTAGGC | 1.05 ± 0.024 |
| TTTGTGTAAT | 0.989 ± 0.038 |
| ACAGATTTAG | 0.972 ± 0.014 |
| TTTTTTAGC | 1.02 ± 0.03 |
| GGCTGGCAGC | 1 ± 0.016 |
| GCGAAAAAGG | 0.997 ± 0.035 |
| GAGGTAAAGC | 1 ± 0.08 |
| CGGTGGAGGG | 0.9849 ± 0.0091 |
| GGGGTGGAGT | 0.971 ± 0.019 |
| GAAGGCTCTG | 0.9922 ± 0.0071 |
| AGGGGCCGGT | 1.01 ± 0.014 |
| GGGATCATAG | 0.9961 ± 0.0072 |
| GATCTTGTTT | 0.976 ± 0.018 |
| CTGGTGATTT | 1.05 ± 0.053 |
| AGCGTTTAGA | 0.989 ± 0.011 |
| TAACACTCCT | 1.1 ± 0.02 |
| AAATTGATGG | 1 ± 0.084 |
| GGAGGAGAGC | 0.994 ± 0.015 |
| TCAATTGTAA | 1.05 ± 0.051 |
| TTATTAGTGC | 1.03 ± 0.1 |
| AGATAAATCA | 0.978 ± 0.033 |
| AATATTCTGT | 0.9923 ± 0.0029 |
| ATTGCATTCA | 0.9949 ± 0.0041 |
| TACGGTAAAA | 0.986 ± 0.044 |

| Sequence | switch fluorescence ratio |
| --- | --- |
| GTGAGGAGGG | 0.959 ± 0.07 |
| GAAGTAAGGA | 1.01 ± 0.074 |
| GTCTCAAAGA | 1.017 ± 0.0083 |
| TAGGAAGGTT | 0.9879 ± 0.0036 |
| TCTATGCATG | 1.04 ± 0.029 |
| CGTATTTCTT | 0.989 ± 0.021 |
| CTGCTACAGT | 1.03 ± 0.02 |
| TTGCTTCCGT | 1.1 ± 0.084 |
| GCTGATAACG | 1.01 ± 0.035 |
| AGGGGCACGA | 1.03 ± 0.024 |
| AGAAGGGTGG | 0.992 ± 0.043 |
| AGGTGTGTGC | 0.97 ± 0.014 |
| TCTCGCCGGG | 1.02 ± 0.031 |
| ATAGGGGTTT | 1.013 ± 0.0055 |
| GGCTTCCCTG | 1.19 ± 0.025 |
| TTAGGGGGCG | 1.03 ± 0.045 |
| TTTGGGTATG | 0.992 ± 0.026 |
| ACTTAACATT | 1.18 ± 0.056 |
| TTCGTTTGCT | 0.955 ± 0.035 |
| GTTTGCAGGA | 0.995 ± 0.027 |
| TAGCTTTTAT | 0.996 ± 0.032 |
| ATATGTGTTT | 1.05 ± 0.018 |
| TTAGGAGACT | 0.991 ± 0.029 |
| ATTCATTGGG | 0.9872 ± 0.0075 |
| AGATGGGGG | 0.948 ± 0.066 |

| Sequence | switch fluorescence ratio |
| --- | --- |
| GCGTAGGGG | 0.967 ± 0.028 |
| CGTTATACGG | 1.043 ± 0.0037 |
| CGGATACGCC | 1.09 ± 0.028 |
| ATTGTATGGA | 1 ± 0.011 |
| TCGTACTTTT | 0.989 ± 0.05 |
| TGGCTTTTGT | 1.44 ± 0.63 |
| ATTTTTTGTA | 0.984 ± 0.026 |
| GTTGGGGAAG | 0.972 ± 0.034 |
| CCACGGGATT | 1.08 ± 0.035 |
| AGGCTTGAGG | 0.9904 ± 0.0044 |
| TTTTTGACTG | 0.994 ± 0.075 |
| ACGGTATTG | 1.19 ± 0.037 |
| AGAAAGGATT | 1.01 ± 0.021 |
| GGTCGTTGGT | 1.04 ± 0.022 |
| CATTAGAGAC | 1.03 ± 0.012 |
| ACGTCCAAAA | 1.04 ± 0.026 |
| CCGGGGGCTG | 1.04 ± 0.068 |
| ACTGCCGGTG | 1.25 ± 0.053 |
| ATGGTTTACG | 1.05 ± 0.077 |
| AAACTTTGTT | 1.02 ± 0.039 |
| GGGCGCATCG | 0.999 ± 0.018 |
| TACGGGAGTC | 1.06 ± 0.16 |
| AGTGGAAGGG | 0.957 ± 0.027 |
| TCTACGGGAT | 2.54 ± 0.2 |
| TAAAGTGCGA | 0.993 ± 0.035 |
